The values below come from IntAct's records for PubMed 31585087.

B1: GRB2-associated-binding protein 1 (Homo sapiens), Q13480 (parent)
chain: MSGGEVVCSGWLRKSPPEKKLKRYAWKRRWFVLRSGRLTGDPDVLEYYKNDHAKKPIRIIDLNLCQQVDAGLTFNKKEFENSYIFDINTIDRIFYLVADSEEEMNKWVRCICDICGFNPTEEDPVKPPGSSLQAPADLPLAINTAPPSTQADSSSATLPPPYQLINVPPHLETLGIQEDPQDYLLLINCQSKKPEPTRTHADSAKSTSSETDCNDNVPSHKNPASSQSKHGMNGFFQQQMIYDSPPSRAPSASVDSSLYNLPRSYSHDVLPKVSPSSTEADGELYVFNTPSGTSSVETQMRHVSISYDIPPTPGNTYQIPRTFPEGTLGQTSKLDTIPDIPPPRPPKPHPAHDRSPVETCSIPRTASDTDSSYCIPTAGMSPSRSNTISTVDLNKLRKDASSQDCYDIPRAFPSDRSSSLEGFHNHFKVKNVLTVGSVSSEELDENYVPMNPNSPPRQHSSSFTEPIQEANYVPMTPGTFDFSSFGMQVPPPAHMGFRSSPKTPPRRPVPVADCEPPPVDRNLKPDRKVKPAPLEIKPLPEWEELQAPVRSPITRSFARDSSRFPMSPRPDSVHSTTSSSDSHDSEENYVPMNPNLSSEDPNLFGSNSLDGGSSPMIKPKGDKQVEYLDLDLDSGKSTPPRKQKSSGSGSSVADERVDYVVVDQQKTLALKSTREAWTDGRQSTESETPAKSVK
partner: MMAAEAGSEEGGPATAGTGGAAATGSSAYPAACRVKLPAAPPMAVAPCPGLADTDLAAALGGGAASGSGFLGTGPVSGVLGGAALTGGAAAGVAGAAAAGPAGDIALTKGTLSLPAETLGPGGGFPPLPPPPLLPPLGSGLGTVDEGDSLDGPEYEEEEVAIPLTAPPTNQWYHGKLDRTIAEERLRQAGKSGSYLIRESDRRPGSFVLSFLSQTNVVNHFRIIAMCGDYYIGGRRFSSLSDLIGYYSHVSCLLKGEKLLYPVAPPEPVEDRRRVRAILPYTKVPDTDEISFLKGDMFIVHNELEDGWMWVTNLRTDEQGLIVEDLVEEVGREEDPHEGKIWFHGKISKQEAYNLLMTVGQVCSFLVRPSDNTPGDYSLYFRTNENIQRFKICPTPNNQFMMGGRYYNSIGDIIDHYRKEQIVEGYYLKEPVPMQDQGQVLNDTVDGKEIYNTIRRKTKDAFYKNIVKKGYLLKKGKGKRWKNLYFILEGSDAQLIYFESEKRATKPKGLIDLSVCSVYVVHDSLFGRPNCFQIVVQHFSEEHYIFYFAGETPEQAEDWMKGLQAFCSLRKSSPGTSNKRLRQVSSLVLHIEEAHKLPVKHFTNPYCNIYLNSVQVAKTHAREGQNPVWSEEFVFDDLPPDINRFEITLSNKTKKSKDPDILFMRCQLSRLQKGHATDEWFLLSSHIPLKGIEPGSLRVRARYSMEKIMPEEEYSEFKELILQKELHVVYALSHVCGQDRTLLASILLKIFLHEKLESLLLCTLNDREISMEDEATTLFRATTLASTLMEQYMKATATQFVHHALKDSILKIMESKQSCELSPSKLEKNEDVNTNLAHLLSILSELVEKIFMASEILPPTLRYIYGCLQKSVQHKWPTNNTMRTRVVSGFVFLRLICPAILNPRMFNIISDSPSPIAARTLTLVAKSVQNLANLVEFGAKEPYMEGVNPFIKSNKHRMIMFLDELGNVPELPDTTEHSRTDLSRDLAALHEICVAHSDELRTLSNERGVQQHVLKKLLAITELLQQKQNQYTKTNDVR

In the test the parent is B1. The settings on record: with rasa1_rat Rasa1, P50904.
Regarding P320S, the “effect of a mutation on the interaction” value is listed as “disrupting interaction strength”.
